{
  "source": "paper PMC9091645",
  "substrate": "CCCC(=O)Oc1ccc([N+](=O)[O-])cc1",
  "test": "initial rates of p-nitrophenyl butyrate hydrolysis",
  "assay_type": "biochemical, Rhizopus arrhizus",
  "details": "30 °C, 25 mM phosphate buffer pH 8, substrate 10-100 mM",
  "data": [
    {"protein": "ROL (Rhizopus oryzae lipase; wild type WROL) (Rhizopus arrhizus) (protein) SDGGKVAAATTAQIQEFTKYAGIAATAYCRSVVPGNKWDCVQCQKWVPDGKIITTFTSLLSDTNGYVLRSDKQKTIYLVFRGTNSFRSAITDIVFNFSDYKPVKGAKVHAGFLSSYEQVVNDYFPVIQEQLTANPTYKVIVTGHSLGGAQALLAGMDLYQREPRLSPKNLSIFTVGGPRVGNPTFAYYVESTGIPFQRTVHKRDIVPHVPPQSFGFLHPGVESWIKSGTSNVQICTSEIETKDCSNSIVPFTSLLDHLSYFDINEGSCL", "values": [
      {"measurement": "Km", "value": 5.56, "unit": "mM"},
      {"measurement": "Vmax", "value": 2.34, "unit": "µmol/min/mg"},
      {"measurement": "kcat", "value": 1.25, "unit": "s⁻¹"},
      {"measurement": "kcat/Km", "value": 220, "unit": "M⁻¹ s⁻¹"}
    ]}
  ]
}
